In PMC4417512, “Role of N-linked glycosylation in the secretion and enzymatic properties of Rhizopus chinensis lipase expressed in Pichia pastoris” (Microbial Cell Factories, 2015):
Read-outs that look alike come from different tables or passages of the source.

Experiments:
[1] = system: CCCCCCCCCCCCCCCC(=O)Oc1ccc([N+](=O)[O-])cc1; assay: purified protein; format: biochemical, Rhizopus microsporus; details: pH 8.0, 40°C, emulsified substrate, Triton X-100 and gum arabic in the standard assay
[2] = system: CCCCCCCCCCCCCCCC(=O)Oc1ccc([N+](=O)[O-])cc1; assay: purified protein; details: pH 8.0, 40°C, emulsified substrate, Triton X-100 and gum arabic in the standard assay

Rhizopus chinensis lipase (RCL; proRCLCNQ): N14Q (proRCLCN14Q)
enzymatic_activity (N-glycosylation at N14): decreases, kcat 60.70 to 24.82 s-1; Km 0.20 to 2.01 mM; kcat/Km 2.92*10^5 to 1.22*10^5 M-1 s-1 | expression_or_secretion (N-glycosylation at N14): no change | stability_or_folding (N-glycosylation at N14): decreases | structure_or_conformation (N-glycosylation at N14): no change

Rhizopus chinensis lipase (RCL; proRCLCNQ): N14Q (proRCLCN14Q), 90% (v/v) organic solvents, 24 h
stability_or_folding (N-glycosylation at N14): decreases, relative activity e.g. isooctane 78 ± 3.5% to 70 ± 3.0%; DMSO 58 ± 4.0% to 51 ± 4.2%

Rhizopus chinensis lipase (RCL; proRCLCNQ): N48Q (proRCLCN48Q)
enzymatic_activity (N-glycosylation at N48): no change, kcat 60.70 vs 61.33 s-1; Km 0.20 vs 0.19 mM; kcat/Km 2.92*10^5 vs 3.11*10^5 M-1 s-1 | expression_or_secretion (N-glycosylation at N48): no change | stability_or_folding (N-glycosylation at N48): no change, about 70% residual activity after 1 h at 50 °C for both

Rhizopus chinensis lipase (RCL; proRCLCNQ): N60Q (proRCLCN60Q)
expression_or_secretion (N-glycosylation at N60): abolishes

Rhizopus chinensis lipase (RCL; proRCLCNQ): N60Q (proRCLCN60Q), mRNA level by RT-PCR
other (N-glycosylation at N60): no change

proRCLCNQ (Rhizopus microsporus var. chinensis; K92N/N40Q/R93Q)
Km ([1]; printed Km inconsistent with printed kcat/Km (tenfold), possible misprint): 2010 ± 120 µM

proRCLCNQ (Rhizopus microsporus var. chinensis; K92N/N74Q/R93Q)
Km [1]: 190 ± 20 µM | kcat [1]: 61.3 ± 2.5 s⁻¹ | kcat/Km [1]: 311000 ± 61000 M⁻¹ s⁻¹

proRCLCNQ (Rhizopus microsporus var. chinensis; K92N/R93Q)
Km [1]: 200 ± 40 µM | kcat [1]: 60.7 ± 2.2 s⁻¹ | kcat/Km [1]: 292000 ± 55000 M⁻¹ s⁻¹

r27RCLC (Rhizopus microsporus var. chinensis)
Km [2]: 340 ± 100 µM | kcat [2]: 122 ± 3.1 s⁻¹ | kcat/Km [2]: 356000 ± 81000 M⁻¹ s⁻¹
